T1: mANGPTL4(26-410)-His (Mus musculus, UniProt Q9Z1P8)
T1 sequence (Q9Z1P8 26-410): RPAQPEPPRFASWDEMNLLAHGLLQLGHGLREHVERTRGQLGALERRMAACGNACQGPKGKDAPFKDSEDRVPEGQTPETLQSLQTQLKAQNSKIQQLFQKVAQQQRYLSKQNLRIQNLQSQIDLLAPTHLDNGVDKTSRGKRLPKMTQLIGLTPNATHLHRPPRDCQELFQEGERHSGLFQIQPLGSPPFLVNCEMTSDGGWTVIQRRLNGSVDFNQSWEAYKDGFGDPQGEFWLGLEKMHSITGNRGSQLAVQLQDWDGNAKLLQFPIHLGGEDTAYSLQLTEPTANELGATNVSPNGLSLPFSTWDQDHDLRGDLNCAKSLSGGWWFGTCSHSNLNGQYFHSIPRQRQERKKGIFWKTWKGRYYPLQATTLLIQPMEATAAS

T2: mANGPTL4-His (Mus musculus, UniProt Q9Z1P8)
T2 sequence (Q9Z1P8 26-410): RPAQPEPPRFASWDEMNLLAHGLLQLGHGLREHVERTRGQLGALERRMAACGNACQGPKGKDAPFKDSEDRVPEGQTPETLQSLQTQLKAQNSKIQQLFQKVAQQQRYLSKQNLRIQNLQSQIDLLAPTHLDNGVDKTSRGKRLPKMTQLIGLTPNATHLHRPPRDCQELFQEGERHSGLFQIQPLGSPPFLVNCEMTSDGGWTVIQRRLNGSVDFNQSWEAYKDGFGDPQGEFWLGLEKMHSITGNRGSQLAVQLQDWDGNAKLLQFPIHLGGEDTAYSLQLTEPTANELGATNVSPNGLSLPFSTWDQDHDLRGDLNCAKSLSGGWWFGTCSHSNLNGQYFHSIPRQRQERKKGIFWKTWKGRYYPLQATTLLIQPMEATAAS


Tests used:
mANGPTL4(26-410)-His = biological target: T1, mANGPTL4(26-410)-His; experiment: Cell-free LPL bioassay, inhibition of mANGPTL4-His; format: biochemical; conditions: constant 1 nM mANGPTL4(26-410)-His; antibody 0 to 100 nM; NB: Not blocking
[1] = Serum human Ab levels in humanized ANGPTL4 mice, ELISA; format: in vivo, mouse; design: unit not given here; conditions: mean±SEM
Description: The effect of anti-hANGPTL4 antibodies H1H268P and H1H284P on serum TG levels was determined in mice expressing the ANGPTL4 protein containing the human N-terminal coil-coil region (“humanized ANGPTL4 mice”). The humanized ANGPTL4 mouse was made by replacing first three exons of the mouse Angptl4 gene (the N terminal coil-coil region) with the corresponding human N-terminal coil-coil ANGPLT4 sequence in C57BL6/129 (F1H4) embryonic stem cells. After germ line transmission was established, heterozygous mice (ANGPTL4hum/+) were bred together to generate homozygous mice [ANGPTL4hum/hum or hANGPTL4(+/+)] on a C57BL6 background. Humanized ANGPTL4 mice were pre-bled 7 days before (day −7) the experiment and put into groups of six mice each for each antibody tested. Antibodies (H1H268P, H1H284P and isotype-matched (hIgG1) control with no known cross-reactivity to mouse antigens) were administered at 10 mg/kg dose by subcutaneous injection. Mice were bled after 4 hours of fasting at days 1, 4, 7 and 11 after antibody injection; and serum TG levels were determined by ADVIA® 1800 Chemistry System (Siemens). Average TG levels were calculated for each time point for each antibody.
Levels of circulating anti-hANGPTL4 antibodies (“serum human Ab”) were also determined using a standard ELISA assay. Briefly, plates were coated with a goat anti-human Fc antibody (Sigma-Aldrich) to capture serum human Ab. Serum was then added to the plates and captured anti-hANGPTL4 antibodies were detected by chemiluminescence using a horseradish peroxidase (HRP)-conjugated goat anti-human IgG antibody (Sigma-Aldrich).

MfANGPTL4(1-130)-His = experiment: BIACORE, full mAb or Fab over amino-coupled MfANGPTL4(1-130)-His; format: binding, cynomolgus monkey; conditions: for Response bound at 50 nM mAb or Fab: amino-coupled 1,028 RU
Description: Briefly, various concentrations (3.125 nM-100 nM) of anti-hANGPTL4 antibodies (i.e., H1H268 Fab, entire H1H268 mAb, H1H284 Fab, and entire H1H284 mAb) were injected over a low density anti-mFc captured hANGPTL4(26-148)-mFc (˜68±4 RU) surface, or the surface of amino-coupled hANGPTL4(26-406)-His (R&D Systems) (450 RU) or amino-coupled cynomolgus monkey N-terminal region (amino acid residues 1-130 of SEQ ID NO:490) expressed with an C-terminal hexa-histidine tag (MfANGPTL4(1-130)-His) (1,028 RU). Kinetic analysis was performed to measure ka and kd, and KD values and half-life of antigen/antibody complex dissociation were calculated. The results are shown in Table 4 (H1H268P) and Table 5 (H1H284P).

mANGPTL4-His = biological target: T2, mANGPTL4-His; experiment: BIACORE cross-reactivity, amine coupled mANGPTL4-His; format: binding; conditions: for Specific RU, mANGPTL4-His: chip surface 5233 RU, mAb injected at 3.125-50 μg/mL
Description: Possible cross-reactivity of the anti-hANGPTL4 antibodies to related proteins, i.e., hANGPTL3, human angiopoietin-like protein 5 (hANGPTL5) and mouse ANGPTL4 (mANGPTL4), was tested for the selected antibodies, i.e., H1H268P and H1H284P, using the BIACORE™ system. Briefly, anti-hANGPTL4 antibodies as well as negative controls, i.e., two monoclonal antibodies (Control a and Control b) that are non-binders to any ANGPTL proteins, were injected at 3.125 μg/mL-50 μg/mL over amine coupled chip surfaces of hANGPTL3-His (R&D Systems, cat #3829-AN) at 5228 RU, hANGPTL4-His (R&D Systems, cat #4487-AN) at 6247 RU, hANGPTL5-His (Abnova Corp., cat #H00253935-P01) at 5265 RU, and mANGPTL4-His [R26-S410 of mANGPTL4 (SEQ ID NO: 478) fused with an AS linker to a C-terminal 6-histidine tag] at 5233 RU, respectively. A polyclonal antibody specific for hANGPTL3 (R&D System, cat #BAF3485) was also tested.

[2] = day 1 after injection, 10 mg/kg s.c.
[3] = day 4 after injection, 10 mg/kg s.c.
[4] = day 7 after injection, 10 mg/kg s.c.
[5] = day 11 after injection, 10 mg/kg s.c.

MfANGPTL4(1-130)-His, sequence (as listed by the source): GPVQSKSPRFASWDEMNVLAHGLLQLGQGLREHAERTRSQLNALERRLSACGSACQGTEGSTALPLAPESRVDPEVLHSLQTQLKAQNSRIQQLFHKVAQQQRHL

Molecule | IC50 (mANGPTL4(26-410)-His) [µM] | Serum Human Antibody [1, 2] | Serum Human Antibody [1, 3] | Serum Human Antibody [1, 4] | Serum Human Antibody [1, 5] | Serum Human Antibody ([1]; day −7 (pre-bleed)) | ka (MfANGPTL4(1-130)-His; pH 5.75, 25° C.) [M⁻¹ s⁻¹] | kd (MfANGPTL4(1-130)-His; pH 5.75, 25° C.) [s⁻¹] | Response bound at 50 nM mAb or Fab (MfANGPTL4(1-130)-His; pH 5.75, 25° C.) | ka (MfANGPTL4(1-130)-His; pH 7.2, 25° C.) [M⁻¹ s⁻¹] | kd (MfANGPTL4(1-130)-His; pH 7.2, 25° C.) [s⁻¹] | Response bound at 50 nM mAb or Fab (MfANGPTL4(1-130)-His; pH 7.2, 25° C.) | binding to mANGPTL4-His (other related ANGPTL protein), in words (mANGPTL4-His) | Specific RU, mANGPTL4-His (mANGPTL4-His) [RU]
H1H268P: anti-hANGPTL4 antibody, hIgG1 isotype, HCVR/LCVR SEQ ID NOs 42/44 (antibody, V domains shown) VH: QVQLQESGAGLLKPSETLSLTCTVYGGSFSIHHWTWIRHPPGKGLEWIGEINHRGSTNYNPSLKSRVTISIDTSKNQFSLKLSAVTAADTAVYYCARGLRFLDWLSSYFDYWGQGTLVTVSS VL: DIQMTQSPSSLSASVGDRVTITCRASQGISDYLAWYQQKPGKVPNLLIYAASALQSGVPSRFSGSGSGTDFTLTISSLQPEDVATYYCQNYNTAPLTFGGGTKVEIK | > 0.1 | 24130 ± 1788 | 16557 ± 1369 | 12586 ± 1176 | 6106 ± 1111 | 2.92 ± 2.92 | 107000 | 8.24e-05 | 583 | 392000 | 4.76e-05 | 279 | did not bind | −7
H1H284P: anti-hANGPTL4 antibody, hIgG1 isotype, HCVR/LCVR SEQ ID NOs 90/92 (antibody, V domains shown) VH: QVQLVESGGGVVQPGRSLRLSCAASGFTFSSYGMHWVRQAPGKGLEWMAVISFDGGNKNNADSVKGRFTISRDNSKNTLYLQMNSLRAEDTAVYYCAKEGDRSGHPYFYYYGLDVWGQGTTVTVS VL: DIQLTQSPSFLSASVGDRVTITCWASQGISSYLAWYQQKPGKAPKLLIYAASTLQSGVPSRFSGSGSETEFTLTISSLQPEDFATYYCQQLHSYPLTFGGGTKVEIK | > 0.1 | 16459 ± 1455 | 9103 ± 767 | 2428 ± 525 | 135 ± 38 | 3.02 ± 2.38 | 1.55e+06 | 8.42e-05 | 804 | 467000 | 5.83e-05 | 414 | did not bind | 18

From patent publication US9120851B2, “Human antibodies to human angiopoietin-like protein 4” (Regeneron Pharmaceuticals, Inc., priority 2009, dated 2015)
